Assay results: patent US20210259954A1, “CILIA-TARGETING NANOPARTICLES” (Chapman University, priority 2019, published 2021)
Values belong to the compound of their own block, whether it stands above or below them.

Columns and labels:
[1] = test system: p-ERK; assay: Immunoblotting of phosphorylated ERK; assay type: cell-based; details: PKG inhibition
Experimental: Immunoblotting. […] Samples were kept on ice during sonication to prevent overheating. Samples were then centrifuged at 15,000 rpm for 20 min, and the supernatants were collected and subjected to protein quantification. The PAGE (polyacrylamide gel electrophoresis) on 6-10% SDS gels was performed followed by semi-dry transfer to PVDF membranes using a Bio-Rad Trans-Blot Turbo Transfer System and detection using antibodies against t-ERK (1:1,000), p-ERK (1:1,000), NOS (1:200), and GAPDH (1:2,000) (Cell Signaling Technology). Blots were scanned with both calorimetry to image molecular markers and chemiluminescence to capture the protein signal intensity using a Bio-Rad imager.

[2] = molecular target: Dopamine-receptor type-5 (DR-5) on primary cilia of cultured cells; assay: live single-cell fluorescence imaging of perfused fluorescent nanoparticles on the cilium
[3] = molecular target: Dopamine-receptor type-5 (DR-5) on primary cilia of cultured cells; assay: fluorescence intensity in non-permeabilized live cells
[4] = molecular target: Dopamine-receptor type-5 (DR-5) on primary cilia of cultured cells; assay: live single-cell-single-cilium fluorescence intensity per area

Compound: Nc1nc2c(nc(Sc3ccc(Cl)cc3)n2C2OC3COP(O)(=S)OC3C2O)c(=O)[nH]1 (centres unmarked) [Rp-8pCPT-cGMP]
flow-induced effect of NPs on ERK phosphorylation [1]: reduced the flow-induced effect of NPs on ERK phosphorylation

binding kinetics to cilia [2]: 0.21 min⁻¹
Compound: CT-DAu-NPs (cilia-targeted dopaminergized gold nanoparticles carrying DR-5-AF594 antibody and fenoldopam)

ratio of cilia-to-cell body specificity [3]: 158
proportion of specific binding cilium:cell:background (relative to background = 1) [4]: 17000
Compound: CT-Fe2O3-NPs (antibody- and fenoldopam-loaded Sunbright-40-OA-Fe2O3-NPs)

binding kinetics to cilia [2]: 0.26 min⁻¹
Compound: CT-PLGA-NPs (cilia-targeted PLGA nanoparticles carrying DR-5-AF594 antibody and fenoldopam)
